# PMC4104026
# Biological target: Hfq (His6-tagged) (UniProt P0A6X3)
# Assay: EMSA
# Settings: Single-RNA EMSA: 10 mM Tris-HCl pH 7.4, 0.1 mM EDTA, 10 mM NH4Cl, 10 mM NaCl, 10 mM KCl, 1 mg/ml tRNA, 4% glycerol, RT 5 min; ~40 fmol RNA (legend; Methods say …)
# Sequence of Hfq (His6-tagged) (P0A6X3 whole entry): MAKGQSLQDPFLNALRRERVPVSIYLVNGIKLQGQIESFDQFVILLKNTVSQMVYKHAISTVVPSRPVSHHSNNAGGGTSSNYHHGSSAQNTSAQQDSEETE
substance,measurement,value
DppA mRNA 5' 166 nt (DppASal),binding signal (fold higher affinity than AgvB and GcvB),10
